Reference: US11225653B2, “Methods and compounds for reducing threonyl-tRNA synthetase activity” (University of Vermont and State Agricultural College, priority 2012, dated 2022)

B1: E. coli ThrRS: bacterial (E. coli) threonyl-tRNA synthetase (protein, UniProt P0A8M3 1-642, looked up)
Threonine--tRNA ligase: MPVITLPDGSQRHYDHAVSPMDVALDIGPGLAKACIAGRVNGELVDACDLIENDAQLSIITAKDEEGLEIIRHSCAHLLGHAIKQLWPHTKMAIGPVIDNGFYYDVDLDRTLTQEDVEALEKRMHELAEKNYDVIKKKVSWHEARETFANRGESYKVSILDENIAHDDKPGLYFHEEYVDMCRGPHVPNMRFCHHFKLMKTAGAYWRGDSNNKMLQRIYGTAWADKKALNAYLQRLEEAAKRDHRKIGKQLDLYHMQEEAPGMVFWHNDGWTIFRELEVFVRSKLKEYQYQEVKGPFMMDRVLWEKTGHWDNYKDAMFTTSSENREYCIKPMNCPGHVQIFNQGLKSYRDLPLRMAEFGSCHRNEPSGSLHGLMRVRGFTQDDAHIFCTEEQIRDEVNGCIRLVYDMYSTFGFEKIVVKLSTRPEKRIGSDEMWDRAEADLAVALEENNIPFEYQLGEGAFYGPKIEFTLYDCLDRAWQCGTVQLDFSLPSRLSASYVGEDNERKVPVMIHRAILGSMERFIGILTEEFAGFFPTWLAPVQVVIMNITDSQSEYVNELTQKLSNAGIRVKADLRNEKIGFKIREHTLRRVPYMLVCGDKEVESGKVAVRTRRGKDLGSMDVNEVIEKLQQEIRSRSLKQLEE
B2: L567V TARS: BC194-resistant (borrelidin-resistant) L567V mutant of human TARS (protein, UniProt P26639 1-723, looked up, variant L567V)
Threonine--tRNA ligase 1, …: MFEEKASSPSGKMGGEEKPIGAGEEKQKEGGKKKNKEGSGDGGRAELNPWPEYIYTRLEMYNILKAEHDSILAEKAEKDSKPIKVTLPDGKQVDAESWKTTPYQIACGISQGLADNTVIAKVNNVVWDLDRPLEEDCTLELLKFEDEEAQAVYWHSSAHIMGEAMERVYGGCLCYGPPIENGFYYDMYLEEGGVSSNDFSSLEALCKKIIKEKQAFERLEVKKETLLAMFKYNKFKCRILNEKVNTPTTTVYRCGPLIDLCRGPHVRHTGKIKALKIHKNSSTYWEGKADMETLQRIYGISFPDPKMLKEWEKFQEEAKNRDHRKIGRDQELYFFHELSPGSCFFLPKGAYIYNALIEFIRSEYRKRGFQEVVTPNIFNSRLWMTSGHWQHYSENMFSFEVEKELFALKPMNCPGHCLMFDHRPRSWRELPLRLADFGVLHRNELSGALTGLTRVRRFQQDDAHIFCAMEQIEDEIKGCLDFLRTVYSVFGFSFKLNLSTRPEKFLGDIEVWDQAEKQLENSLNEFGEKWELNSGDGAFYGPKIDIQIKDAIGRYHQCATIQLDFQVPIRFNLTYVSHDGDDKKRPVIVHRAILGSVERMIAILTENYGGKWPFWLSPRQVMVVPVGPTCDEYAQKVRQQFHDAKFMADIDLDPGCTLNKKIRNAQLAQYNFILVVGEKEKISGTVNIRTRDNKVHGERTISETIERLQQLKEFRSKQAEEEF

Experiments:
human TARS [1] = test: Ap4G formation assay; assay type: biochemical; details: 2 mM ATP, 2 mM threonine, 2 mM GTP
human TARS [2] = test: Ap4A formation assay; assay type: biochemical; details: 5 μM enzyme, 2 mM threonine, 2 mM ATP
Protocol: TARS purification and active site determination were performed as previously described (Williams, Mirando et al., 2013). TARS non-canonical catalytic activities were characterized using modifications from published methods (Guo, Chong et al. 2009). For Ap4A reactions 5 μM of wildtype TARS or R442A TARS were incubated for 10 minutes on ice with 2 mM threonine, and 10 μM BC194 or borrelidin as indicated in FIG. 17C. Reactions were initiated using 2 mM ATP with trace amounts of [α-^32P]-ATP as label. At specific time points aliquots were quenched in 3 volumes of 0.1% SDS, 400 mM sodium acetate and resolved on polyethyleneimine-cellulose plates by thin-layer chromatography (TLC) in 3 M NH4 (SO4)2 and 2% EDTA. Radioactive counts were identified by phosphorimaging and products quantified as fractions of total ATP added. The quantitation of product was normalized to take into account the fact that each Ap4A molecule has two equivalents of radioactive phosphorus.

human TARS [3] = test: GTPase assay (GTP hydrolysis); assay type: biochemical; details: 2 mM GTP
[4] = tested on: chorioallantoic membrane (CAM); test: Chick chorioallantoic membrane (CAM) assay; assay type: in vivo, chicken
Protocol: Chick Chorioallantoic Membrane Assay-Fertilized chicken eggs (Sunrise Farms, Catskill, N.Y.) day 1-2 post-laying were incubated in a humidified incubator at 37° C. for 72 h. Cleaned eggs were cracked and plated in a sterile 10 cm^2 tissue culture-treated dish and incubated at 37° C. for another 7 days. On developmental day 10, 1 mm^3 sterile gelatin sponge pieces (Surgifoam®; Johnson & Johnson Wound Management, Somerville, N.J.) were placed within the outer one-third of the membrane between large vessels. 40 μg/ml human bFGF and 2 μg/mL human VEGF were used as pro-angiogenic control compounds; 100 μg/mL retinoic acid (Sigma-Aldrich, St. Louis, Mo.) diluted in phosphate-buffered saline (PBS) was used as an angiostatic control. All compounds were applied in 10 μl to the CAM every 24 h for 72 h. Images were taken using a Leica MZ6 stereomicroscope every 24 h. Compounds were scored according to a modified version of Intensity Scoring as previously described (Ribatti, Nico et al. 2006). Briefly, each experimental condition was given a blinded score from 0-5 based on the change in the extent of vessel convergence and formation in proximity to the sponge from day 0 to day 3. Total score is averaged individual experimental condition scores from at least 15 replicates.
Fertilized chicken embryos were cultured ex-ova and, starting at developmental day 10, agents were applied daily to gelfoam sponges on the CAM. Images were recorded daily over 72 h and scored blindly according to a modified version Intensity Scoring as previously described (Ribatti, Nico et al. 2006). Additional details regarding methods are provided in the Methods and Materials section of Example 1.

human TARS [5] = test: Steady state aminoacylation assay; assay type: biochemical; details: purified protein
Protocol: Steady State Aminoacylation Assay-The aminoacylation activities of the TARS constructs were determined using modifications to established procedures ([…] et al 2008). Briefly, reaction mixtures consisted of 20 mM Tris-HCl pH 8.0, 100 mM KCl, 10 mM MgCl2, 1 mM dithiothreitol, 2 mM ATP, 2.5 U pyrophosphatase (Roche), 80 μM threonine, 20 μM [14C]-threonine, and 5 μM of E. coli or human […]. Reactions were initiated with the addition of 0.25-0.75 μM TARS and run at 37° C. Aliquots were taken at varying time points and spotted onto Whatmann 3MM paper filters pre-soaked in 5% trichloroacetic acid (TCA). Upon completion, the filters were washed 3 times in excess TCA, once in 95% ethanol, and dried under a heating lamp. The formation of […] was detected by scintillation counter and the activity determined by linear regression of […] formed per active site per unit time.

GTP hydrolysis (human TARS [3])	Molecule	rate of Ap4G formation (human TARS [1])	production of Ap4A (human TARS [2])	sensitivity of protein-stimulated CAM vessel formation to BC194 ([4]; protein applied together with BC194)	vessel formation / vascularization on the CAM after applied protein ([4]; purified protein applied daily to sponge, scored over 72 h)	aminoacylation activity of the protein (human TARS [5])
not	B1	0.5612 Ap4G/active site/min	0.5612 Ap4A/active site/min	–	–	–
–	B2	–	–	not inhibited by application of BC194	stimulated vessel formation	activity is not compromised
